From the DeepSol protein solubility set

test: soluble on expression in E. coli; label from the status in PepcDB or PDB records

Soluble on expression in E. coli, not soluble:
MAASIELFEQNGFSETSIQDIVDALGVTKGTFYYYFTSKEELLMDIHLRYIERLLDEEERIISDKRRSVQEKLYDIIFMLIHNVERQGREARIFFREMKHLNEEHLQKVKEKRDLFRYRLQSLIEEGMKSGELRCDLSPSIATLTVLGAANWSYQWFRPDGELTDAEVAKQMVEILLDGMSAPSVSKAE, MGSDKIHHHHHHMETLISGKNLKAYYVLDLWGSKKVVKAVDNVSLDILPNEIYGIAGESGCGKSTLLKALLALLDPPLRLMDGELLYNIEGRPTNVTLLKSETIRKLRWSFISYIPQGSMHVLNPVKRVRDTFIEILSSHVKKQTKEFLDLAVQHLKDLGLPERVLNMFPHQLSGGMRQRVTIALATVLKPRVIFADEPTTALDVVAQRAVMQLIRKIQNDLKNTVVLVTHDMGVHAQITTRMAIMYAGKIVEEGPTLEIFKNPLHPYTRYLIQSLPAIGDKKLRSGIPGSPPSLVAPPPGCRFHPRCPHASQRCREEEPLLKEIKPGHKVACFLMEG, EHRYGHLLGQINWISLGGGIHFTEPGYALDAFCDRLRRFSEQYGVQVYLEPGEAAITNTATLEVTVLDVMRNEKNLAIVDAATEAHMLDLLIYRMSARVQPDQGPHRYVIYGNSCLAGDVFGEFSFESPLQPGSRISIQDAAGYTMVKKNWFNGVRMPAIAIRELDGEIRLVREFGYQD, MKNNPKTRYPLRLEESYAKNIQKAVKEIEKVSLYEFDKYLAPMIDDKNIVNDSNLINDGLFDAASKLIRNAQTYFLGILQNRTAQKIVRKHINSVNAFNKSNVNSQLSARGINPLQTEKWLDSYVQAKIAENISYVTNIRDDYSKKFEQVIYRGITEGKSSNEIREELVHQAGMSSDKAAFIARDQTGTILGQMNSERQKRAGFQAFRWSDSGDERVRDSHRERNGKIYFYADNPLLPGEEYNCRCVAEPVDDEELLEESIDLGLSNQEEHAVKTYVSSEAYKLNDKLRNGYQLDESDLKLIDNLDKALGKMTNYDGEVTRSMFFDSSDDLVRFANNYNLNDVVQFPEYISTTKDIYSEQDSLRFVIMSSTGKDLGSYNKSEKEVLFNRDAKFIVKDRYLLDGKPFIVLEEYHE

Soluble on expression in E. coli, soluble:
MPPGKNFRRRKEDSSDEEDDETKFVVRSKLDEAKELQSLRKRQHGVSIATLLVGEKLPLEAELEDDPFKLKTGGVVDMKKVKDRSRDMTVDENDLNLGTSFSAETNRRDEDADMMKYIETELKKKKGMVEAEEQKVKVKNPEDLLYELPENINVSSAKKTEEMLSNQMLSGIPEVDLGIDAKIKNIINTEEAKAKLLAEQRNKKKDSGTSFVPTNIAVNYVQHNRFYHEDSNAPQRRNREEPKARPLRVGDTEKPAPEASPPNFRKRPNNEKATDDYHYEKFKKMNRRY, GAKNYYDITLALAGICQSARLVQQLAHQGHCDADALHVSLNSIIDMNPSSTLAVFGGSEANLRVGLETLLGVLNASSRQGLNAELTRYTLSLMVLERKLSSAKGALDTLGNRINGLQRQLEHFDLQSETLMSAMAAIYVDVISPLGPRIQVTGSPAVLQSPQVQAKVRATLLAGIRAAVLWHQVGGGRLQLMFSRNRLTTQAKQILAHLTPEL, MSLESSQSLELLKNKIEQYALNELSNYTEGKIQVTADNIDPRLNLKVCNDNKLEVFNPYQTPMLNTSTMGIKCLEENNHWTLYIPVKITIFKSVLVAKRALLKGTKISNSDIYQTELDVQKLKQGYFTDSKELIGLVCKHDITPNSPLNPFNIELAKLVHKGEQVSIIAAHDNLTVSMDGVAMDEGALGDSVKVKNLSSKRIIEAQVTGKKTVKVTFEGHHHHHH, MASSTISLQSISMTTLNNLSYSKQFHRSSLLGFSKSFQNFGISSNGPGSSSPTSFTPKKKLTPTRALSQNLGNTENPRPSKVQELSVYEINDLDRHSPKILKNAFSFRFGLGDLVPFTNKLYTGDLKKRVGITAGLCVVIEHVPEKNGDRFEATYSFYFGDYGHLSVQGPYLTYEDSFLAITGGAGIFEGAYGQVKLQQLVYPTKLFYTFYLKGLANDLPLELIGTPVPPSKDVEPAPEAKALKPSGVVSNFTN
